Positions count from the first letter of the chain named.
What was measured:
[1] = test system: KK-Ay diabetic model mice; assay: Long-term administration experiment, KK-Ay diabetic model mice; format: in vivo, mouse; conditions: 1 mg/Kg twice per week; for Relative bioactivity: fast blood glucose decrease vs blank control relative to fusion protein of example 2, after 2 weeks
Protocol: The drug is given twice per week, and the mice are fasted for 6 h each Wednesday and tested for fast blood glucose, meanwhile their food intake and weight variation are recorded. […] Specifically, long term administration is conducted according to the following protocol: the KK-Ay diabetic model mice are randomized into blank control group (injected only with PBS) and experimental group (injected with 1 mg/Kg of the fusion protein in Table 3). The drug is given twice per week; after 2 weeks, the mice are fasted for 6 h and tested for fasting blood glucose, and the blood glucose decrease of one experimental group is calculated by subtracting the fasting blood glucose of the experimental group from that of the blank control group.

[2] = molecular target: T1, human GLP-1 receptor (Homo sapiens, UniProt P43220); assay: Combining (binding) test with CHO engineering cell line expressing human GLP-1R, flow cytometry; conditions: 4° C. 30 min
T1 construct: expressed in transfected cells; host or cells: CHO (CHO-hGLP1R)
Protocol: After PBS washing, human immunoglobulin γ chain antibody labeled with fluorescein FITC is added, and incubate at 4° C. for 30 min. After PBS washing, 1% paraformaldehyde in PBS is added, mix thoroughly and load the sample, read the mean fluorescence intensity of sample of each concentration in selected zone in the flow cytometry.

[3] = test system: db/db diabetic model mice; assay: Single injection hypoglycemic test, db/db mouse obesity diabetic model; format: in vivo; conditions: 1 mg/Kg and 0.1 mg/Kg groups, single injection through caudal vein, 0-240 min
[4] = test system: KK-Ay diabetic model mice; assay: Oral glucose tolerance test, KK-Ay diabetic model mice; format: in vivo, mouse; conditions: 1 mg/Kg and 0.1 mg/Kg subcutaneously, glucose 1 mg/g by gastric tube 6 h later
[5] = test system: KK-Ay diabetic model mice; assay: Single injection hypoglycemic test, KK-Ay mouse obesity diabetic model; format: in vivo; conditions: 1 mg/Kg, single injection through caudal vein, 0-240 min, fasted 2 h
[6] = molecular target: T1, human GLP-1 receptor; assay: cAMP secretion test on human GLP-1 receptor CHO cell (CHO-hGLP1R); format: cell-based; conditions: for cAMP concentration: 30 min incubation, CHO-hGLP1R

T1 sequence (P43220 24-463): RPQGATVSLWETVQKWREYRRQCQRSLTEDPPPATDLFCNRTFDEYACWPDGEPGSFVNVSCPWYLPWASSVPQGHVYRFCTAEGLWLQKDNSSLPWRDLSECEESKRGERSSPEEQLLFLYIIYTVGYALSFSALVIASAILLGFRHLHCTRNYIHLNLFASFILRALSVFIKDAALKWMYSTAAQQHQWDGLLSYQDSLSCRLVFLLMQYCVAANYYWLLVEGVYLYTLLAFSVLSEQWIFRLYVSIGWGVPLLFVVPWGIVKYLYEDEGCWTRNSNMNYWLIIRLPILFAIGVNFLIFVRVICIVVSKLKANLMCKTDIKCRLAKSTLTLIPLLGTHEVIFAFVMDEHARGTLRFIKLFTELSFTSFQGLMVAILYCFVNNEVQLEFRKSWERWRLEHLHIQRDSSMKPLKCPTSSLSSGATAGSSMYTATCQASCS

## SEQ ID NO: 22: fusion protein: peptide hormone SEQ ID NO: 1 (Exendin-4), linker SEQ ID NO: 3, IgG4-Fc
[1]; fasted 6 h
  Relative bioactivity: 75%

B1: SEQ ID NO: 15: fusion protein: peptide hormone SEQ ID NO: 16 (differs from SEQ ID NO:2 in 3 sites), linker SEQ ID NO: 3, IgG2-Fc (protein)
chain: HTEGTFTSDASSYLEGQACKEFIAWLVKGRGGGGAGGGGVECPPCPAPPVAGPSVFLFPPKPKDTLMISRTPEVTCVVVDVSHEDPEVQFNWYVDGVEVHNAKTKPREEQFNSTFRVVSVLTVVHQDWLNGKEYKCKVSNKGLPAPIEKTISKTKGQPREPQVYTLPPSREEMTKNQVSLTCLVKGFYPSDIAVEWESNGQPENNYKTTPPMLDSDGSFFLYSKLTVDKSRWQQGNVFSCSVMHEALHNHYTQKSLSLSPGK
modifications: The sequence is synthesized
[1]; fasted 6 h
  Relative bioactivity: 94%

B2: SEQ ID NO: 19: fusion protein: peptide hormone SEQ ID NO: 20 (differs from SEQ ID NO:2 in 2 sites), linker SEQ ID NO: 3, IgG2-Fc (protein)
chain: B1 chain with T2A, A10L, C19I
modifications: The sequence is synthesized
[1]; fasted 6 h
  Relative bioactivity: 92%

B3: SEQ ID NO: 17: fusion protein: peptide hormone SEQ ID NO: 18 (differs from SEQ ID NO:2 in 3 sites), linker SEQ ID NO: 3, IgG2-Fc (protein)
chain: B1 chain with A10L, C19S
modifications: The sequence is synthesized
[1]; fasted 6 h
  Relative bioactivity: 93%

B4: SEQ ID NO: 21: fusion protein: peptide hormone SEQ ID NO: 2 (GLP-1 (7-36) NH2), linker SEQ ID NO: 3, IgG2-Fc (protein)
chain: B1 chain with T2A, A10V, C19A
modifications: The sequence is synthesized
[1]; fasted 6 h
  Relative bioactivity: 91%

B5: SEQ ID NO: 13: fusion protein: peptide hormone SEQ ID NO: 14 (GLP-1A8G), linker SEQ ID NO: 3, IgG2-Fc (protein)
chain: AAEGTFTGDVSSYLEGQAAKEFIAWLVKGRGGGGGAGGGGVECPPCPAPPVAGPSVFLFPPKPKDTLMISRTPEVTCVVVDVSHEDPEVQFNWYVDGVEVHNAKTKPREEQFNSTFRVVSVLTVVHQDWLNGKEYKCKVSNKGLPAPIEKTISKTKGQPREPQVYTLPPSREEMTKNQVSLTCLVKGFYPSDIAVEWESNGQPENNYKTTPPMLDSDGSFFLYSKLTVDKSRWQQGNVFSCSVMHEALHNHYTQKSLSLSPGK
modifications: The sequence is synthesized
[1]; fasted 6 h
  Relative bioactivity: 95%

B6: LAX09: Exendin-4 (SEQ ID NO: 1) fused via linker SEQ ID NO: 3 to Fc fragment of human IgG2; SEQ ID NO: 4 (protein)
chain: HGEGTFTSDLSKQMEEEAVRLFIEWLKDGGPSSGAPPPSGGGGAGGGGVECPPCPAPPVAGPSVFLFPPKPKDTLMISRTPEVTCVVVDVSHEDPEVQFNWYVDGVEVHNAKTKPREEQFNSTFRVVSVLTVVHQDWLNGKEYKCKVSNKGLPAPIEKTISKTKGQPREPQVYTLPPSREEMTKNQVSLTCLVKGFYPSDIAVEWESNGQPENNYKTTPPMLDSDGSFFLYSKLTVDKSRWQQGNVFSCSVMHEALHNHYTQKSLSLSPGK
modifications: The sequence is synthesized
[2]; LAX09 mass concentration 0.098 μg/mL
  Mean fluorescence intensity: 14.12
[2]; LAX09 mass concentration 0.246 μg/mL
  Mean fluorescence intensity: 17.53
[2]; LAX09 mass concentration 0.614 μg/mL
  Mean fluorescence intensity: 21.78
[2]; LAX09 mass concentration 1.536 μg/mL
  Mean fluorescence intensity: 38.01
[2]; LAX09 mass concentration 3.84 μg/mL
  Mean fluorescence intensity: 57.03
[2]; LAX09 mass concentration 9.6 μg/mL
  Mean fluorescence intensity: 81.54
[2]; LAX09 mass concentration 24 μg/mL
  Mean fluorescence intensity: 94.81
[2]; LAX09 mass concentration 60 μg/mL
  Mean fluorescence intensity: 121.98
[3]
  hypoglycemic effect (blood glucose): best hypoglycemic effect
[4]
  ability to maintain normal blood glucose (oral glucose tolerance): same good ability to maintain normal blood glucose
[5]
  blood glucose of the mouse: under 10 mmol/L
[1]
  food intake: decreases
  weight: significantly reduced
[1]; fasted 6 h, versus PBS group
  fast blood glucose: significantly different from that of PBS group
[6]; cAMP in CHO-hGLP1R cells
  EC50: ~4.5 nM
[6]; drug concentration 0.01 nM
  cAMP concentration: 2
[6]; drug concentration 0.1 nM
  cAMP concentration: 5
[6]; drug concentration 1 nM
  cAMP concentration: 31
[6]; drug concentration 10 nM
  cAMP concentration: 115
[6]; drug concentration 1000 nM
  cAMP concentration: 153

B7: SEQ ID NO: 7: fusion protein: peptide hormone SEQ ID NO: 8 (differs from SEQ ID NO:1 in 3 sites), linker SEQ ID NO: 3, IgG2-Fc (protein)
chain: B6 chain with G2T, L10A, K12L
modifications: The sequence is synthesized
[1]; fasted 6 h
  Relative bioactivity: 98%

B8: SEQ ID NO: 9: fusion protein: peptide hormone SEQ ID NO: 10 (differs from SEQ ID NO:1 in 4 sites), linker SEQ ID NO: 3, IgG2-Fc (protein)
chain: B6 chain with G2A, L10A, K12L, Q13T
modifications: The sequence is synthesized
[1]; fasted 6 h
  Relative bioactivity: 97%

B9: SEQ ID NO: 11: fusion protein: peptide hormone SEQ ID NO: 12 (differs from SEQ ID NO:1 in 6 sites), linker SEQ ID NO: 3, IgG2-Fc (protein)
chain: B6 chain with G2A, L10A, K12L, Q13T, M14Y, V19C
modifications: The sequence is synthesized
[1]; fasted 6 h
  Relative bioactivity: 96%

B10: SEQ ID NO: 5: fusion protein: peptide hormone SEQ ID NO: 6 (differs from SEQ ID NO:1 in 2 sites), linker SEQ ID NO: 3, IgG2-Fc (protein)
chain: B6 chain with G2T, L10A
modifications: The sequence is synthesized
[1]; fasted 6 h
  Relative bioactivity: 99%

Reference: patent US8889619B2 (Beijing Dongfang Biotech Co., Ltd., priority 2010, dated 2014)
